± gives the uncertainty stated by the source.
Assay: protein stability index of a GFP-peptide fusion (yeast GPS) (PSI 1-4); higher = more stable; sorted into four equal gates, so the index is relative within each strain
Method in brief: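 For each peptide, the protein stability index sums the read frequency in every gate after multiplying it by the gate number. Read frequencies came from plasmids that were PCR-amplified from each gate and Illumina-sequenced, with reads assigned to strains by barcodes. The gates were four equal bins of GFP/Cherry fluorescence ratio applied to mid-log yeast in leucine-free medium carrying a pooled library of tiled 17-residue yeast protein peptides fused downstream of GFP on a Cherry-expressing plasmid.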

Row | Sequence | protein stability index (pdr5∆) | protein stability index (san1∆) | protein stability index (ubr1∆) | protein stability index (doa10∆)
1 | HVVGRIAEVGNKRWKVD [RRP4] | 3 ± 0.17 | 2.89 ± 0.16 | 2.67 ± 0.082 | 
2 | WNLLRSLYIFFTTLLES [YML103C/NUP188] | 1.58 ± 0.044 | 1.69 ± 0.06 | 1.43 ± 0.028 | 2.08 ± 0.058
3 | KEPRLVIVTDPRLDAQA [RPS0B] | 3.42 ± 0.17 |  | 2.61 ± 0.16 | 3.41 ± 0.25
4 | SHNWAAKAKRRHTTGTG [RPL37B] | 2.92 ± 0.058 | 3.33 ± 0.071 | 3.35 ± 0.056 | 3.29 ± 0.1
5 | EDSMIMNQSSIDRGLFR [RPB2] | 2.61 ± 0.093 | 2.62 ± 0.098 | 2.91 ± 0.065 | 2.55 ± 0.08
6 | EGQLKPGDGSSYINVTF [RPC25] | 3.12 ± 0.15 | 2.77 ± 0.19 | 3.02 ± 0.11 | 3.44 ± 0.15
7 | DRTLPHFSKDDYSPESK [RPO21] | 3.22 ± 0.074 | 2.85 ± 0.099 | 3.42 ± 0.093 | 3.07 ± 0.1
8 | DDFEEDEDEEDDDDYNA [RPC31] | 3.31 ± 0.12 | 3.2 ± 0.09 | 3.46 ± 0.29 | 
9 | EIESIDKLPQFVDENTF [RPN1] | 3.4 ± 0.22 | 3.09 ± 0.085 | 3.32 ± 0.1 | 3.08 ± 0.13
10 | EIFHLLQPLEEGLIIDT [SIN4] | 2.13 ± 0.11 | 2.21 ± 0.22 | 1.97 ± 0.093 | 1.99 ± 0.2
11 | GSVIQTHIAESAKEIAK [MCD1] | 2.89 ± 0.08 | 3 ± 0.048 | 3.06 ± 0.058 | 2.91 ± 0.09
12 | YQELAYRATSLDPSLRA [YML031W/NDC1] | 2.89 ± 0.041 | 2.83 ± 0.036 | 2.61 ± 0.031 | 2.8 ± 0.049
13 | NISIITLELESFLEGSK [RGR1] | 2.48 ± 0.059 | 2.75 ± 0.059 | 2.94 ± 0.071 | 2.44 ± 0.054
14 | DTKPFLNKDSTNEFVGS [NUT1] | 2.79 ± 0.054 | 2.44 ± 0.062 | 3.04 ± 0.039 | 3.09 ± 0.064
15 | QQQQAAALANANNNINS [SWI1] | 2.3 ± 0.053 | 2.46 ± 0.047 | 2.65 ± 0.06 | 2.51 ± 0.058
16 | SSLFLDGLEKAAFNGVT [FAS2] | 2.12 ± 0.062 | 2.02 ± 0.092 | 2.88 ± 0.063 | 2.3 ± 0.06
17 | EVYEALKEVLYNDSATS [RPN2] | 3.45 ± 0.15 |  | 3.46 ± 0.08 | 3.34 ± 0.18
18 | NAISLQLKYDTSVQEKE [YIL149C/MLP2] | 2.33 ± 0.12 | 2.75 ± 0.099 | 2.92 ± 0.07 | 2.61 ± 0.13
19 | MGPPSGKTYMGWWGHMG [QCR8] |  | 3.13 ± 0.2 |  | 
20 | FLGYKAGMTTIVRDLDR [RPL3] | 3.17 ± 0.18 | 2.93 ± 0.078 | 3.14 ± 0.1 | 2.48 ± 0.12
21 | YTREFVEAIRRSNQYQR [NUT2] | 2.18 ± 0.05 | 2.88 ± 0.12 | 2.21 ± 0.082 | 2.26 ± 0.07

Row | Sequence | protein stability index (pdr5∆) | protein stability index (san1∆) | protein stability index (ubr1∆) | protein stability index (doa10∆)
22 | QHGFEVQVGPMKVFVTK [RPB7] | 2.41 ± 0.079 | 2.43 ± 0.089 | 2.52 ± 0.09 | 2.26 ± 0.065
23 | EDNKYAIAGNSTTNSDV [RGR1] | 2.92 ± 0.12 | 2.99 ± 0.06 | 2.93 ± 0.08 | 2.89 ± 0.13
24 | NKLLGNVTIAQGGVLPN [HTA1] | 1.66 ± 0.041 | 1.72 ± 0.058 | 1.61 ± 0.033 | 1.82 ± 0.053
25 | FAQENSELAVATTSVMM [SRB6] | 3.13 ± 0.14 | 3.13 ± 0.07 | 3.33 ± 0.11 | 2.82 ± 0.13
26 | DTYKRFKYLLGVTDLFR [ISW2] | 1.37 ± 0.052 | 1.21 ± 0.11 | 1.34 ± 0.075 | 1.85 ± 0.045
27 | EGKVTKLRRECSNPTCG [RPS31] | 3.16 ± 0.089 | 3.18 ± 0.078 | 3.1 ± 0.083 | 3.31 ± 0.11
28 | KTYALESINNVVDQLWS [RPN2] | 2.9 ± 0.059 | 2.7 ± 0.07 | 2.6 ± 0.055 | 2.82 ± 0.066
29 | PDNSIFGDTKSESKQLG [SWI3] | 3.23 ± 0.091 | 3.21 ± 0.076 | 3.37 ± 0.052 | 3.54 ± 0.14
30 | ASLADVMSIESLVEVVF [FAS1] | 2.18 ± 0.067 | 1.78 ± 0.091 | 2.97 ± 0.062 | 2.89 ± 0.08
31 | FDIYNRDRKLITDKGTV [YJL039C/NUP192] | 2.53 ± 0.093 | 2.86 ± 0.11 | 2.96 ± 0.083 | 3.18 ± 0.13
32 | KENKKRKNFKMGPLYQN [IRR1] | 1.99 ± 0.08 | 2.05 ± 0.078 | 2.13 ± 0.059 | 1.33 ± 0.046
33 | ENSAVAAKEGLALSSNI [COR1] | 2.66 ± 0.064 | 2.49 ± 0.084 | 2.17 ± 0.053 | 1.84 ± 0.065
34 | LGKFKNIIASPLSAGFN [SIN4] | 1.94 ± 0.05 | 1.95 ± 0.09 | 2.04 ± 0.056 | 1.88 ± 0.06
35 | YACISSRPGQSGRCDGY [RPS8A] | 3.21 ± 0.12 | 3.35 ± 0.097 | 3.28 ± 0.046 | 3.02 ± 0.1
36 | KKRSKVRKETYSSYIYK [HTB2] | 3.33 ± 0.066 | 3.14 ± 0.071 | 3.38 ± 0.052 | 3.15 ± 0.074
37 | KRPGKLSDYIPGPYPNE [CYT1] | 3.22 ± 0.06 | 3.24 ± 0.041 | 3.16 ± 0.037 | 3.19 ± 0.059
38 | KTFEIKEIKTNEYVIKT [YMR129W/POM152] | 2.25 ± 0.089 | 1.92 ± 0.091 | 2.02 ± 0.047 | 2.58 ± 0.1
39 | SFYDAIFFNIPLVAHLG [YJL039C/NUP192] | 1.23 ± 0.042 | 2.02 ± 0.027 | 1.22 ± 0.034 | 1.73 ± 0.037
40 | KRIESLQKDLQRQKTYV [SMC1] | 3.2 ± 0.13 | 2.85 ± 0.21 | 2.9 ± 0.15 | 3.01 ± 0.16
41 | GLALQLFKKLKEENDEG [RPN2] | 3.28 ± 0.12 | 2.96 ± 0.1 | 3.41 ± 0.096 | 3.27 ± 0.12

Source: the supplement of paper PMC9732359
